These results are taken from article PMC8639819.

Data set [1] can be described thus: 3D z-stack immunofluorescence, 2TS22C cells. The conditions noted are these: glycan lost; control: WT FLAG-Sox2.
A short description of data set [2]: Western blot, stable 2TS22C cells. The following applies: glycan lost; control: WT FLAG-Sox2. Background: A western blot detects proteins with antibodies after separation by electrophoresis.
A short description of data set [3]: Western blot. The following applies: glycan lost; control: E14 cells.
Data set [4] can be described thus: immunofluorescence confocal microscopy. The conditions noted are these: glycan lost; control: E14 cells.

Chain of Sox2: T258A (chain, as listed by the source T258A): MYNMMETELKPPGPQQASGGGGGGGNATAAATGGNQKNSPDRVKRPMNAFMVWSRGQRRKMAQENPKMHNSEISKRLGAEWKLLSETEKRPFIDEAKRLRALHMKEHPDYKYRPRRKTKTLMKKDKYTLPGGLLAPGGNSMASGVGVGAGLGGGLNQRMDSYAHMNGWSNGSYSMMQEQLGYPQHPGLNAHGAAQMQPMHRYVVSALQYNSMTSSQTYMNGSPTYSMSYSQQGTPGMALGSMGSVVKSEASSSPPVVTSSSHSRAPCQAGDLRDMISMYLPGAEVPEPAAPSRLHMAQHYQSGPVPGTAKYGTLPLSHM
Chain of Sox2: E14-Sox2TA/WT (chain, as listed by the source): as the sequence (chain, as listed by the source T258A) above
Chain of Sox2: S248A/T258A (chain, as listed by the source S248A T258A): as the sequence (chain, as listed by the source T258A) above
Chain of Sox2: S248A (chain, as listed by the source S248A): as the sequence (chain, as listed by the source T258A) above

On to Sox2: T258A, for which the localisation_or_trafficking entry in data set [1] is reported as “no change”. Further, the expression_or_secretion entry in data set [2] is “no change”.

For the substance Sox2: S248A, the expression_or_secretion result in data set [2] is “no change”.

For the substance Sox2: E14-Sox2TA/WT, the expression_or_secretion result in data set [3] is listed as “no change”. In addition, the localisation_or_trafficking entry in data set [4] is “no change”.

For the substance Sox2: S248A/T258A, the expression_or_secretion entry in data set [2] is given as “no change”.
